From patent publication US20230110188A1 (ARGENX IIP, published 2023)
Positions count from the first letter of the chain named. Each block holds one binder with its values, some of them ahead of it.

Assays:
[1] = molecular target: T1, Human MuSK (R&D Systems, cat. 10189-MK, histidine tag) (human, UniProt O15146 24-495); assay: SPR (Biacore), antibody captured on anti-hFc chip; 2.5 nM; dissociation pH 7.4
T1 construct: Bought protein; also called human monomeric MuSK-6xhis; not shown: histidine tag (6xhis)
T1 sequence: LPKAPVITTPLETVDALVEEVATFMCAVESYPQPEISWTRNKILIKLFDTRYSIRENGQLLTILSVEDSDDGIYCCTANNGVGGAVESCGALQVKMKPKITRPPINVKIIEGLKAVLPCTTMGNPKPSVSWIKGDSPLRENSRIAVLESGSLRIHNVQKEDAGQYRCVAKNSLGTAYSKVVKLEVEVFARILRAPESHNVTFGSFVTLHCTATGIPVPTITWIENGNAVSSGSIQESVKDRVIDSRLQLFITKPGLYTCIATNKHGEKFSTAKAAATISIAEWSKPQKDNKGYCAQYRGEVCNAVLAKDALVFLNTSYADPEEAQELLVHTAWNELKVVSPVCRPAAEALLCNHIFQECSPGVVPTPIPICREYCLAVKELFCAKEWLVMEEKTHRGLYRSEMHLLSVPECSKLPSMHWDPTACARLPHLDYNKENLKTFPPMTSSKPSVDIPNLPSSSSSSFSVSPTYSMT
From the text: (§1) In order to study pH dependent binding of our antibodies to MuSK, the Biacore was used with the same setup as described in the paragraph entitled “Binding affinity for mouse, human and rhesus monkey recombinant MuSK in Biacore”. 6. […] For the other antibodies there is no real difference observed between pH 7.4 and 5.5.

[2] = molecular target: T1, Human MuSK (R&D Systems, cat. 10189-MK, …); assay: SPR (Biacore), antibody captured on anti-hFc chip; 10 nM; dissociation pH 5.5
From the text: as §1

[3] = molecular target: T1, Human MuSK (R&D Systems, cat. 10189-MK, …); assay: SPR (Biacore), MuSK-coated chip presaturated with 500 nM 4D3 (competitor)
Protocol: (§2) A chip was coated with ˜5000 RU of human MuSK (Lot nr DHUCO 11908A, batch nr 1089_MK). In a first experiment the saturating concentration of the pre-leads was determined. This is the concentration where the amplitude of a specific pre-lead doesn't increase anymore when additional pre-lead is injected on the immobilized MuSK.

[4] = molecular target: T1, Human MuSK (R&D Systems, cat. 10189-MK, …); assay: SPR (Biacore), antibody captured on anti-hFc chip; 0.3125 nM; dissociation pH 5.5
From the text: as §1

[5] = molecular target: T1, Human MuSK (R&D Systems, cat. 10189-MK, …); assay: SPR (Biacore), antibody captured on anti-hFc chip; 0.625 nM; dissociation pH 7.4
From the text: as §1

[6] = molecular target: T1, Human MuSK (R&D Systems, cat. 10189-MK, …); assay: SPR (Biacore), MuSK-coated chip presaturated with 500 nM 3F6c (competitor)
Protocol: as §2

[7] = molecular target: T1, Human MuSK (R&D Systems, cat. 10189-MK, …); assay: SPR (Biacore), antibody captured on anti-hFc chip; 1.25 nM; dissociation pH 5.5
From the text: as §1

[8] = molecular target: T2, Mouse MuSK as it stands on mouse muscle (neuromuscular junctions, C2C12 myotubes) (mouse, UniProt Q61006 22-868); assay: cell-based or functional assay
T2 sequence (looked up): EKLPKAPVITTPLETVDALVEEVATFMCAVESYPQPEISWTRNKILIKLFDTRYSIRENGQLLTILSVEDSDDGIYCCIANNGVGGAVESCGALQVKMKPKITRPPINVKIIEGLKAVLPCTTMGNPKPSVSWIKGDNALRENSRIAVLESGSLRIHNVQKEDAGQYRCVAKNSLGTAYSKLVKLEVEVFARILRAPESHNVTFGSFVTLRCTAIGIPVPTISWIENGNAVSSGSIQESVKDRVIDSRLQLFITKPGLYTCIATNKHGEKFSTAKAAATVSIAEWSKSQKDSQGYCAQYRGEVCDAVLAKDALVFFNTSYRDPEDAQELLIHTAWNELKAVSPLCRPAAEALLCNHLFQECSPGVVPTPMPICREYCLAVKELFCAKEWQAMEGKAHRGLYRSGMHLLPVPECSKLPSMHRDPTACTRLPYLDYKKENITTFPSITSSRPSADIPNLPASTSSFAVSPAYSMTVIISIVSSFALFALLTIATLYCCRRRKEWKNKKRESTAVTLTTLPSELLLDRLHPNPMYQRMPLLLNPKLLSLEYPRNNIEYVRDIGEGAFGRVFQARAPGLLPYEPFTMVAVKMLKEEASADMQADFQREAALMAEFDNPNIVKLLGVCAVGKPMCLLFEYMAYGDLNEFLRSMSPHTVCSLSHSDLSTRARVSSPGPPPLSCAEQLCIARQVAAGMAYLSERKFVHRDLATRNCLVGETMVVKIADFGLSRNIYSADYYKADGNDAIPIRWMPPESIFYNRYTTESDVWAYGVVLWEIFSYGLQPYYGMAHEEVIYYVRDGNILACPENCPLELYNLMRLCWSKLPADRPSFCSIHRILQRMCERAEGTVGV

[9] = molecular target: T1, Human MuSK (R&D Systems, cat. 10189-MK, …); assay: SPR (Biacore), antibody captured on anti-hFc chip; 10 nM; dissociation pH 7.4
From the text: as §1

koff [1]: 0.00018 s⁻¹
koff [2]: 0.00011 s⁻¹
amplitude of prelead after presaturating MuSK (RU) [3]: 68 RU
extra amplitude (%) [3]: 7.2%
normalized extra amplitude (%) [3]: 1.9%
koff [4]: 6e-05 s⁻¹
koff [5]: 0.00013 s⁻¹
amplitude of prelead after presaturating MuSK (RU) [6]: 75 RU
extra amplitude (%) [6]: 3.2%
normalized extra amplitude (%) [6]: 1.4%
koff [7]: 7e-05 s⁻¹
AChR clusters larger or equal to 15 µm (large clusters) compared to agrin; antibody 0.11 µg/ml [8]: 62 % of agrin
AChR clusters larger or equal to 15 µm (large clusters) compared to agrin; antibody 1.1 µg/ml [8]: 64 % of agrin
AChR clusters larger or equal to 15 µm (large clusters) compared to agrin; antibody 11 µg/ml [8]: 61 % of agrin
AChR clusters larger or equal to 15 µm (large clusters) compared to agrin; antibody 110 µg/ml [8]: 58 % of agrin
koff [9]: 0.00014 s⁻¹
B1: 3D10a (antibody, human IgG1, kappa, L234A L235A, V domains shown)
VH: EVQLVESGGGLVKPGGSLRLSCAASGFTFSASTMAWVRQAPGKGLEWVSSVSGDSHHIYYADSLKGRFTISRDNAKNSLYLQMNSLRAEDTAVYYCARERLLRLGVGFDSWGQGTLVTVSS
VL: DIQMTQSPSSLSASVGDRVTITCRASQRISGFVNWYQQKPGKAPKLLIYAASTLQSGVPSRFSGSGSGTDFTLTISSLQPEDFATYYCQQSYSPLYTFGQGTKLEIKR

koff [1]: 9e-05 s⁻¹
koff [2]: 4e-05 s⁻¹
amplitude of prelead after presaturating MuSK (RU) [3]: 163 RU
extra amplitude (%) [3]: 14.9%
normalized extra amplitude (%) [3]: 9.6%
koff [4]: 3e-05 s⁻¹
koff [5]: 0.00014 s⁻¹
amplitude of prelead after presaturating MuSK (RU) [6]: 191 RU
extra amplitude (%) [6]: 11.5%
normalized extra amplitude (%) [6]: 9.7%
koff [7]: 3e-05 s⁻¹
AChR clusters larger or equal to 15 µm (large clusters) compared to agrin; antibody 0.11 µg/ml [8]: 49 % of agrin
AChR clusters larger or equal to 15 µm (large clusters) compared to agrin; antibody 1.1 µg/ml [8]: 84 % of agrin
AChR clusters larger or equal to 15 µm (large clusters) compared to agrin; antibody 11 µg/ml [8]: 79 % of agrin
AChR clusters larger or equal to 15 µm (large clusters) compared to agrin; antibody 110 µg/ml [8]: 66 % of agrin
koff [9]: 8e-05 s⁻¹
B2: 3D9b (antibody, human IgG1, kappa, L234A L235A, V domains shown)
VH: EVQLVESGGGLVKPGGSLRLSCAASGFTFSTYTMHWVRQAPGKGLEWVSSISSRSAYKYYADSVKGRFTISRDNAKNSLYLQMNSLRAEDTAVYYCARDFFQLGPPRFDSWGQGTLVTVSS
VL: B1 VL with G31S, V33L, A50G, T53N, L95S

koff [1]: 6e-05 s⁻¹
koff [2]: 0.00023 s⁻¹
amplitude of prelead after presaturating MuSK (RU) [3]: 59 RU
extra amplitude (%) [3]: 5.8%
normalized extra amplitude (%) [3]: 0.6%
koff [4]: 0.00023 s⁻¹
koff [5]: 4e-05 s⁻¹
amplitude of prelead after presaturating MuSK (RU) [6]: 64 RU
extra amplitude (%) [6]: 1.8%
normalized extra amplitude (%) [6]: 0%
koff [7]: 0.00018 s⁻¹
AChR clusters larger or equal to 15 µm (large clusters) compared to agrin; antibody 0.11 µg/ml [8]: 60 % of agrin
AChR clusters larger or equal to 15 µm (large clusters) compared to agrin; antibody 1.1 µg/ml [8]: 46 % of agrin
AChR clusters larger or equal to 15 µm (large clusters) compared to agrin; antibody 11 µg/ml [8]: 51 % of agrin
AChR clusters larger or equal to 15 µm (large clusters) compared to agrin; antibody 110 µg/ml [8]: 50 % of agrin
koff [9]: 6e-05 s⁻¹
B3: 3F6c (antibody, human IgG1, kappa, L234A L235A, V domains shown)
VH: EVQLVESGGGLVKPGGSLRLSCAASGFTFSSYTMDWVRQAPGKGLEWVSSIGSNGDYIYYADSVRGRFTISRDNAKNSLYLQMNSLRAEDTAVYYCARGQLAVAGTHFDYWGQGTLVTVSS
VL: B1 VL with R28K, I29V, S30N, G31K, F32Y, Y96S

koff [1]: 0.00015 s⁻¹
koff [2]: 0.00019 s⁻¹
amplitude of prelead after presaturating MuSK (RU) [3]: 45 RU
extra amplitude (%) [3]: 5.2%
normalized extra amplitude (%) [3]: 0%
koff [4]: 0.00018 s⁻¹
koff [5]: 0.00016 s⁻¹
amplitude of prelead after presaturating MuSK (RU) [6]: 68 RU
extra amplitude (%) [6]: 2.8%
normalized extra amplitude (%) [6]: 1.1%
koff [7]: 0.00016 s⁻¹
AChR clusters larger or equal to 15 µm (large clusters) compared to agrin; antibody 0.11 µg/ml [8]: 44 % of agrin
AChR clusters larger or equal to 15 µm (large clusters) compared to agrin; antibody 1.1 µg/ml [8]: 58 % of agrin
AChR clusters larger or equal to 15 µm (large clusters) compared to agrin; antibody 11 µg/ml [8]: 61 % of agrin
AChR clusters larger or equal to 15 µm (large clusters) compared to agrin; antibody 110 µg/ml [8]: 58 % of agrin
koff [9]: 0.00013 s⁻¹
B4: 4D3 (antibody, human IgG1, kappa, L234A L235A, V domains shown)
VH: B1 VH with A31S, S32Y, A35T, V51I, G53S, D54G, S55G, H57Y, A61T, S110F
VL: B1 VL with R28S, F32Y, V33L, P94A
